Laboratory results reported in PMC4911921, “Hfq assists small RNAs in binding to the coding sequence of ompD mRNA and in rearranging its structure”.
Substitutions are numbered along the chain they refer to.

Key:
[1] = molecular target: T1, Hfq wt (Salmonella, UniProt P0A1R0 1-102); test: EMSA; 24 mM Tris-HCl pH 7.5, 50 mM NaCl, 50 mM NH4Cl, 50 mM KCl, 0.5 mM EDTA, 2 mM MgCl2, 5% glycerol, room temperature, 1 h; 6% native gel in 1x THEM2; settings: protein: recombinant, tags: C-terminal His6, chain copies: 6, label: 5'-32P
[2] = molecular target: T1, Hfq wt; test: EMSA; 3 nM Hfq hexamer; 24 mM Tris-HCl pH 7.5, 50 mM NaCl, 50 mM NH4Cl, 50 mM KCl, 0.5 mM EDTA, 2 mM MgCl2, 5% glycerol, room temperature, 1 h; 6% native gel in 1x THEM2; settings: protein: recombinant; tags: C-terminal His6; chain copies: 6; label: 32P
[3] = molecular target: T1, Hfq wt; test: EMSA; specific site (Ks); 24 mM Tris-HCl pH 7.5, 50 mM NaCl, 50 mM NH4Cl, 50 mM KCl, 0.5 mM EDTA, 2 mM MgCl2, 5% glycerol, room temperature, 1 h; 6% native gel in 1x THEM2; settings: protein: recombinant, tags: C-terminal His6, chain copies: 6, label: 5'-32P
[4] = molecular target: T1, Hfq wt; test: EMSA; two nonspecific sites (Kns); 24 mM Tris-HCl pH 7.5, 50 mM NaCl, 50 mM NH4Cl, 50 mM KCl, 0.5 mM EDTA, 2 mM MgCl2, 5% glycerol, room temperature, 1 h; 6% native gel in 1x THEM2; settings: protein: recombinant, tags: C-terminal His6, chain copies: 6, label: 5'-32P
[5] = molecular target: T2, Hfq R16A (Salmonella, UniProt P0A1R0 1-102, R16A); test: EMSA; tightest complex; 24 mM Tris-HCl pH 7.5, 50 mM NaCl, 50 mM NH4Cl, 50 mM KCl, 0.5 mM EDTA, 2 mM MgCl2, 5% glycerol, room temperature, 1 h; 6% native gel in 1x THEM2; settings: protein: recombinant; tags: C-terminal His6; chain copies: 6; label: 5'-32P; five stem-loops SL1-SL5
[6] = molecular target: T3, Hfq Y25D (Salmonella, UniProt P0A1R0 1-102, Y25D); test: as above; settings: protein: recombinant; tags: C-terminal His6; chain copies: 6; label: 5'-32P; five stem-loops SL1-SL5
[7] = molecular target: T4, Hfq K56A (Salmonella, UniProt P0A1R0 1-102, K56A); test: as above; settings: protein: recombinant; tags: C-terminal His6; chain copies: 6; label: 5'-32P; five stem-loops SL1-SL5
[8] = molecular target: T2, Hfq R16A; test: EMSA; 24 mM Tris-HCl pH 7.5, 50 mM NaCl, 50 mM NH4Cl, 50 mM KCl, 0.5 mM EDTA, 2 mM MgCl2, 5% glycerol, room temperature, 1 h; 6% native gel in 1x THEM2; settings: protein: recombinant; tags: C-terminal His6; chain copies: 6; label: 5'-32P
[9] = molecular target: T3, Hfq Y25D; test: as above; settings: protein: recombinant; tags: C-terminal His6; chain copies: 6; label: 5'-32P
[10] = molecular target: T4, Hfq K56A; test: as above; settings: protein: recombinant; tags: C-terminal His6; chain copies: 6; label: 5'-32P

B1: ompD-1-95 (structured_RNA)
RNA: GCCAUUGACAAACGCCUCGUUUAACAAUGGUUGAGGAAACACGCUAAGAAAAUUAUAAGGAUUAUUAAAAUGAAACUUAAGUUAGUGGCAGUGGC
[1]; SL1, SL2
  binding signal: ~1 fold vs ompD-187 (similar)

## GCCUGCAUUAAUGCCAAC (ssRNA) [SdsR-18]
[2]
  binding result: no binding

B2: ompD-187 (structured_RNA)
RNA: GCCAUUGACAAACGCCUCGUUUAACAAUGGUUGAGGAAACACGCUAAGAAAAUUAUAAGGAUUAUUAAAAUGAAACUUAAGUUAGUGGCAGUGGCAGUGACUUCCCUGUUGGCAGCAGGCGUUGUAAAUGCAGCCGAGGUAUAUAACAAAGACGGCAAUAAACUGGAUCUGUACGGUAAAGUUCACG
[3]; five stem-loops SL1-SL5
  Kd: 0.61 ± 0.17 nM
[4]; five stem-loops SL1-SL5
  Kd: 1.9 ± 0.58 nM
[5]
  binding signal: ~1 fold vs wt Hfq (not changed)
[6]
  binding signal: ~3 fold weaker than wt Hfq
[7]
  binding signal: ~2 fold weaker than wt Hfq

B3: ompD-187 ARN-5+6 (structured_RNA)
RNA: B2 RNA with A148G, A150G, A157C, A160U, A161C
[3]
  Kd: 0.81 ± 0.09 nM

B4: ompD-187 ARN-6 (structured_RNA)
RNA: B2 RNA with A157C, A160U, A161C
[3]
  Kd: 0.82 ± 0.075 nM
[4]
  Kd: 2.4 ± 0.29 nM

B5: ompD-187 ARN-1 (structured_RNA)
RNA: B2 RNA with A23C, A24G
[3]
  Kd: 0.77 ± 0.097 nM
[4]
  Kd: 3 ± 0.46 nM

B6: ompD-187 ARN-2 (structured_RNA)
RNA: B2 RNA with A34U, G35U, A38U
[3]
  Kd: 0.85 ± 0.003 nM
[4]
  Kd: 2.2 ± 0.25 nM

B7: ompD-187 ARN-5 (structured_RNA)
RNA: B2 RNA with A148G, A150G
[3]
  Kd: 0.89 ± 0.093 nM
[4]
  Kd: 3 ± 0.46 nM

B8: ompD-187 ARN-3 (structured_RNA)
RNA: GCCAUUGACAAACGCCUCGUUUAACAAUGGUUGAGGAAACACGCUUUGAUAUUAUAAGGAUUAUUAAAAUGAAACUUAAGUUAGUGGCAGUGGCAGUGACUUCCCUGUUGGCAGCAGGCGUUGUAAAUGCAGCCGAGGUAUAUAACAAAGACGGCAAUAAACUGGAUCUGUACGGUAAAGUUCACG
[8]
  binding signal: ~6 fold weaker than R16A to ompD-187
[9]
  binding signal: ~1 fold vs same Hfq mutant to ompD-187 (similar)
[10]
  binding signal: ~1 fold vs same Hfq mutant to ompD-187 (similar)
[3]
  Kd: 0.93 ± 0.24 nM
[4]
  Kd: 2.9 ± 0.35 nM

## GCCACUGCUUUUCUUU (ssRNA) [RybB-16]
[2]
  binding result: no binding

B9: ompD-35-131 (structured_RNA)
RNA: GGAAACACGCUAAGAAAAUUAUAAGGAUUAUUAAAAUGAAACUUAAGUUAGUGGCAGUGGCAGUGACUUCCCUGUUGGCAGCAGGCGUUGUAAAUGC
[1]; SL2, SL3
  binding signal: ~4 fold tighter than ompD-187

B10: ompD-187-SL2mut (structured_RNA)
RNA: GGCCAUUGACAAACGCCUCGUUUAACAAUGGUUGAGGAAACACGCUUUGAUAAUUCUAGGGCUUAUUUUUAUGAUGCUUAAGUUAGUGGCAGUGGCAGUGACUUCCCUGUUGGCAGCAGGCGUUGUAAAUGCAGCCGAGGUAUAUAACAAAGACGGCAAUAAACUGGAUCUGUACGGUAAAGUUCACG
[8]
  binding signal: ~10 fold weaker than R16A to ompD-187
[9]
  binding signal: ~1 fold vs same Hfq mutant to ompD-187 (similar)
[10]
  binding signal: ~1 fold vs same Hfq mutant to ompD-187 (similar)
[1]
  binding signal: ~3 fold weaker than ompD-187

## GCCGAGGUAUAUAACAAA (ssRNA) [ompD-18M]
[2]
  binding result: no binding

## UAAGUUAGUGGCAGUGGCAGU (ssRNA) [ompD-21R]
[2]
  binding result: no binding

## GUUAUAUGCCUU (ssRNA) [MicC-12]
[2]
  binding result: no binding

B11: ompD-93-187 (structured_RNA)
RNA: GGCAGUGACUUCCCUGUUGGCAGCAGGCGUUGUAAAUGCAGCCGAGGUAUAUAACAAAGACGGCAAUAAACUGGAUCUGUACGGUAAAGUUCACG
[1]; SL3, SL4, SL5
  binding signal: ~6 fold weaker than ompD-187

## CCUGUUGGCAGCAGGCGUU (ssRNA) [ompD-19S]
[2]
  binding result: no binding
